These results are taken from the DeepSol protein solubility set.

The series can be described thus: soluble on expression in E. coli; label from the status in PepcDB or PDB records.
Take “MGSDKIHHHHHHMLILYQFERTWGNPNLSHFCCKTETYLRMAGIEYAIKTTLPLFAPKGKLPYIKDGNIKLADSRFIIRHLKNRYKDLDEGLNPAEIALSLAMQRLIEEHLFWATMYTRWQYTDVNWQVNKKAIFDVLPPAIRDVAAVIYRYRIRRQIYGHGMGRHKPEEIFELGMQDIDALSACLGDKKYFLGDQPTTLDASAFGFLINTIACPIESPLKEYGLSKENLGDYIDRIKMQYYPDLQ”: the “soluble on expression in E. coli” value was “not soluble”. Then “MGSDKIHHHHHHMRGGNIKAIVYLPLDPEKAKQNNLPVKLPVLAEDLPKVLEEDRIPLDVILRGLEAQYEITKDEYYRSYYVFFLYEKFKQLLREGKLDEAEKILEKAKEVQYDYRYHFYRGLLLKHRGELGEAEIEMRLAISMNDRFAPAYFELAGILKEKNEIEDSLLFYEKAYEVNKEFLLPLLKKGDLLLEEGRLEEAIEEYRRILEKDSNFVEVYERLGVIYNQLQRFKEAEKFFKKALEIERKDHVEYNLSYTLIKLGKLFEALEILKRLYEKNPDDPMVANEYGLLLKTLGLYEEALEVFEDAYRRHKEEEILKYNYGTILLHFEKEKAVSILSEISGELKDRAEFMISLAEKDVVIPSYEEFEWLKDYFFEGTIDVVALSEEIDSEDEDAKRRIERLREGEFPFYDTTLDSSEMLEVILGIMFESPDIFKMEENAVKFVSAFYGSSVMIASTIVLTRTFQYFLAEEEPTMEELLRELVAETQDVNWKFSLRLARFRHADRFDFNRLSDLVIAFLQSIEQGTPVSDDERLKYLLEKLTFQKEG”, with “not soluble”; and “MGSDKIHHHHHHMTTNNASPEAGHIMQTRTVDLDGQVLRVGIRPGSGDLPPLLMFNGIGANLELVEPFVDALPDVEVIIFDIPGAGGSPAPLFPYRFSNLCVMADKLLSHLGYAGPVDTLGVSWGGALAQEFARLYPQRCRRLVLAATSPGVLMVPGSPSVLTKMIGIRRYTDAEYLRRVGGDIYGGAFRDDPSLLDVHGGHMRPPRGRGYLYQLLAAWGWSSLPWLRALKQRTLVLHGSDDPIVPLINAKILSGCIPDSALHVFHDDGHLFLLTAARESARVVGEFLREGR”, with “not soluble”. In the case of “MGSDKIHHHHHHMQEIHTIMKHMDALIADPSAAAFKATLPFAELLEKLHNKKALFDAALAKSAERADAGRIIGKTSHIDALAYLLDISKSEAFRRTKRAEEHYGNPSPEPSSEELAKETPEEKLAREEKEKQDLAEQAEANRIAREHGISAEKQDTIRYELEKLNDNTSLSRASLRKLAMQEATSRTPEDLRNWTRNKVIRINPTAKDPLAAVKKRSLSIGRQDHDGGAKASLYLDAKGLALLKSLMSKAKPGHLLEDSLAEDKRTKPQRQYDAFADILHRAHSDLLPARSGVGTILVSLSAKDVTNLKASGPDHRYPTSTGIKLTPLEILRLGAAKYDFVTVLDSESGRPLHLARTQRTASLYQRLALFASELVCTREGCDSPFEDNEIHHIRSWLDGGPTDIENITNICPHDHGNNNDQRDGKDNMGHMNIDPTTGRVGYQPADRRKPMRFNNTAAAAESGGAQART” it was “not soluble”; in that of “MGLLPTDRWLEEDEGDPLRLCARLAPLFGKMPAREIYSYLRLYGMYRSTRQAERLLPEMKERRLWERLGRLYERQRGIWKGPDVPVFLLPADDENRKLVREFQGKGGVAFADKLFFFLLPDHCDEEIAALVAHEYNHVCRLKQLPNEGEDATLLDAVVMEGLAEHAVAETVGAEQCAGWTKYYTDREMERFWRRYIVPNQHLPVSHPHTSRILYGLGWHPKMGGYAVGYAIVRRCLERGCSLAQLMTMEAKDIAELAGFSGKQQGAS”, “not soluble”; in that of “SQLNPTVMISGSSANNHRFDNLVAILNRQSTTHSLLRVQVNEDNSISYSGRIRPNDSQPYIVIGFQNNSDGYANIKRQAKWLEIAMKFLQKRYHFNHFNAFGHSNGGLDWTIYLEKYFNQKSSTIGTLMTVGSPFNFSEKSESNRTQMLTDLIKNRSKLPRDMTVYSIAGTETYNDDGIVPIESVLSGKYVFQKNVHSYTQITVSGNDSEHSDLPTNPQIVQLIQRDILDGRGQKQSSNPVFNNH”, “not soluble”. In the case of “MVDSKKRPGKDLDRIDRNILNELQKDGRISNVELSKRVGLSPTPCLERVRRLERQGFIQGYTALLNPHYLDASLLVFVEITLNRGAPDVFEQFNAAVQKLEEIQECHLVSGDFDYLLKTRVPDMSAYRKLLGETLLRLPGVNDTRTYVVMEEVKQSNRLVIKTR” it was “not soluble”.
